T1: Notch1^EGF33-NRR (mouse, UniProt Q01705 1267-1717)
T1 sequence: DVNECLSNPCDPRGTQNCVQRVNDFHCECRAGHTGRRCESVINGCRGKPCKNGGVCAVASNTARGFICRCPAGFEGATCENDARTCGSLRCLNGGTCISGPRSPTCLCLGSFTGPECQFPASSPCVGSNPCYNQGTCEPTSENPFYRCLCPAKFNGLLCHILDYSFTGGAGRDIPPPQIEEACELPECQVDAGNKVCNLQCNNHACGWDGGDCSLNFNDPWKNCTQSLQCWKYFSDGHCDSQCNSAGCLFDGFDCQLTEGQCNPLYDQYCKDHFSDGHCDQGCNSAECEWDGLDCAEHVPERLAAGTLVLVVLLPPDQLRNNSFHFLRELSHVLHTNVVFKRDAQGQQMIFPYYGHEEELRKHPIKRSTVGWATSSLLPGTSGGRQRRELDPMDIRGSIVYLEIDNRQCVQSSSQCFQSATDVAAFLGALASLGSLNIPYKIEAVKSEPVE

B1: Notch1^NRRΔloop (domain or fragment)
chain: EEACELPECQVDAGNKVCNLQCNNHACGWDGGDCSLNFNDPWKNCTQSLQCWKYFSDGHCDSQCNSAGCLFDGFDCQLTEGQCNPLYDQYCKDHFSDGHCDQGCNSAECEWDGLDCAEHVPERLAAGTLVLVVLLPPDQLRNNSFHFLRELSHVLHTNVVFKRDAQGQQMIFPYYGDIRGSIVYLEIDNRQCVQSSSQCFQSATDVAAFLGALASLGSLNIPYKIEAVKSEPVE
B2: Notch1 negative regulatory region (Notch1^NRR) (domain or fragment)
chain: EEACELPECQVDAGNKVCNLQCNNHACGWDGGDCSLNFNDPWKNCTQSLQCWKYFSDGHCDSQCNSAGCLFDGFDCQLTEGQCNPLYDQYCKDHFSDGHCDQGCNSAECEWDGLDCAEHVPERLAAGTLVLVVLLPPDQLRNNSFHFLRELSHVLHTNVVFKRDAQGQQMIFPYYGHEEELRKHPIKRSTVGWATSSLLPGTSGGRQRRELDPMDIRGSIVYLEIDNRQCVQSSSQCFQSATDVAAFLGALASLGSLNIPYKIEAVKSEPVE
B3: Jagged1^EGF8-11,Fc (Fc-tagged, covalently dimerized) (Fc fusion)
chain: DIDECASNPCLNGGHCQNEINRFQCLCPTGFSGNLCQLDIDYCEPNPCQNGAQCYNRASDYFCKCPEDYEGKNCSHLKDHCRTTTCEVIDSCTVAMASNDTPEGVRYISSNVCGPHGKCKSQSGGKFTCDCNKGFTGTYCHENINDCESNPCKNGGTCIDGVNSYKCICSDGWEGAHCE
B4: Notch1 full ectodomain (Notch1^fe), mouse (domain or fragment)
chain: ARGLRCSQPSGTCLNGGRCEVANGTEACVCSGAFVGQRCQDSNPCLSTPCKNAGTCHVVDHGGTVDYACSCPLGFSGPLCLTPLDNACLANPCRNGGTCDLLTLTEYKCRCPPGWSGKSCQQADPCASNPCANGGQCLPFESSYICRCPPGFHGPTCRQDVNECSQNPGLCRHGGTCHNEIGSYRCACRATHTGPHCELPYVPCSPSPCQNGGTCRPTGDTTHECACLPGFAGQNCEENVDDCPGNNCKNGGACVDGVNTYNCRCPPEWTGQYCTEDVDECQLMPNACQNGGTCHNTHGGYNCVCVNGWTGEDCSENIDDCASAACFQGATCHDRVASFYCECPHGRTGLLCHLNDACISNPCNEGSNCDTNPVNGKAICTCPSGYTGPACSQDVDECALGANPCEHAGKCLNTLGSFECQCLQGYTGPRCEIDVNECISNPCQNDATCLDQIGEFQCICMPGYEGVYCEINTDECASSPCLHNGHCMDKINEFQCQCPKGFNGHLCQYDVDECASTPCKNGAKCLDGPNTYTCVCTEGYTGTHCEVDIDECDPDPCHYGSCKDGVATFTCLCQPGYTGHHCETNINECHSQPCRHGGTCQDRDNSYLCLCLKGTTGPNCEINLDDCASNPCDSGTCLDKIDGYECACEPGYTGSMCNVNIDECAGSPCHNGGTCEDGIAGFTCRCPEGYHDPTCLSEVNECNSNPCIHGACRDGLNGYKCDCAPGWSGTNCDINNNECESNPCVNGGTCKDMTSGYVCTCREGFSGPNCQTNINECASNPCLNQGTCIDDVAGYKCNCPLPYTGATCEVVLAPCATSPCKNSGVCKESEDYESFSCVCPTGWQGQTCEVDINECVKSPCRHGASCQNTNGSYRCLCQAGYTGRNCESDIDDCRPNPCHNGGSCTDGINTAFCDCLPGFQGAFCEEDINECASNPCQNGANCTDCVDSYTCTCPVGFNGIHCENNTPDCTESSCFNGGTCVDGINSFTCLCPPGFTGSYCQYDVNECDSRPCLHGGTCQDSYGTYKCTCPQGYTGLNCQNLVRWCDSAPCKNGGRCWQTNTQYHCECRSGWTGVNCDVLSVSCEVAAQKRGIDVTLLCQHGGLCVDEGDKHYCHCQAGYTGSYCEDEVDECSPNPCQNGATCTDYLGGFSCKCVAGYHGSNCSEEINECLSQPCQNGGTCIDLTNSYKCSCPRGTQGVHCEINVDDCHPPLDPASRSPKCFNNGTCVDQVGGYTCTCPPGFVGERCEGDVNECLSNPCDPRGTQNCVQRVNDFHCECRAGHTGRRCESVINGCRGKPCKNGGVCAVASNTARGFICRCPAGFEGATCENDARTCGSLRCLNGGTCISGPRSPTCLCLGSFTGPECQFPASSPCVGSNPCYNQGTCEPTSENPFYRCLCPAKFNGLLCHILDYSFTGGAGRDIPPPQIEEACELPECQVDAGNKVCNLQCNNHACGWDGGDCSLNFNDPWKNCTQSLQCWKYFSDGHCDSQCNSAGCLFDGFDCQLTEGQCNPLYDQYCKDHFSDGHCDQGCNSAECEWDGLDCAEHVPERLAAGTLVLVVLLPPDQLRNNSFHFLRELSHVLHTNVVFKRDAQGQQMIFPYYGHEEELRKHPIKRSTVGWATSSLLPGTSGGRQRRELDPMDIRGSIVYLEIDNRQCVQSSSQCFQSATDVAAFLGALASLGSLNIPYKIEAVKSEPVE
B5: Jagged1^C2-EGF3,wt, C-terminally biotinylated SPR ligand (domain or fragment)
chain: ASGQFELEILSMQNVNGELQNGNCCGGVRNPGDRKCTRDECDTYFKVCLKEYQSRVTAGGPCSFGSGSTPVIGGNTFNLKASRGNDRNRIVLPFSFAWPRSYTLLVEAWDSSNDTIQPDSIIEKASHSGMINPSRQWQTLKQNTGIAHFEYQIRVTCDDHYYGFGCNKFCRPRDDFFGHYACDQNGNKTCMEGWMGPDCNKAICRQGCSPKHGSCKLPGDCRCQYGWQGLYCDKCIPHPGCVHGTCNEPWQCLCETNWGGQLCDKDLNYCGTHQPCLNRGTCSNTGPDKYQCSCPEGYSGPNCE
modifications: biotin on the C-terminal biotin acceptor peptide
B6: Jagged1^CRD,Fc (Fc-tagged, covalently dimerized) (Fc fusion)
chain: EVSGRSCITMGRVILDGAKWDDDCNTCQCLNGRVACSKVWCGPRPCRLHKSHNECPSGQSCIPVLDDQCFVRPCTGVGECRSSSLQPVKTKCTSDSYYQDNCANITFTFNKEMMSPGLTTEHICSELRNLNILKNVSAEYSIYIACEPSLSANNEIHVAISAEDIRDDGNPVKEITDKIIDLVSKRDGNSSLIAAVAEVRVQRRPLKNRTD
B7: Notch1^EGF8-13, C-terminally biotinylated SPR ligand (domain or fragment)
chain: EDVDECQLMPNACQNGGTCHNTHGGYNCVCVNGWTGEDCSENIDDCASAACFQGATCHDRVASFYCECPHGRTGLLCHLNDACISNPCNEGSNCDTNPVNGKAICTCPSGYTGPACSQDVDECALGANPCEHAGKCLNTLGSFECQCLQGYTGPRCEIDVNECISNPCQNDATCLDQIGEFQCICMPGYEGVYCEINTDECASSPCLHNGHCMDKINEFQCQCPKGFNGHLCQ
modifications: biotin on the C-terminal biotin acceptor peptide
B8: Jagged1 full ectodomain, wild type (Jagged1^fe,wt) (domain or fragment)
chain: ASGQFELEILSMQNVNGELQNGNCCGGVRNPGDRKCTRDECDTYFKVCLKEYQSRVTAGGPCSFGSGSTPVIGGNTFNLKASRGNDRNRIVLPFSFAWPRSYTLLVEAWDSSNDTIQPDSIIEKASHSGMINPSRQWQTLKQNTGIAHFEYQIRVTCDDHYYGFGCNKFCRPRDDFFGHYACDQNGNKTCMEGWMGPDCNKAICRQGCSPKHGSCKLPGDCRCQYGWQGLYCDKCIPHPGCVHGTCNEPWQCLCETNWGGQLCDKDLNYCGTHQPCLNRGTCSNTGPDKYQCSCPEGYSGPNCEIAEHACLSDPCHNRGSCKETSSGFECECSPGWTGPTCSTNIDDCSPNNCSHGGTCQDLVNGFKCVCPPQWTGKTCQLDANECEAKPCVNARSCKNLIASYYCDCLPGWMGQNCDININDCLGQCQNDASCRDLVNGYRCICPPGYAGDHCERDIDECASNPCLNGGHCQNEINRFQCLCPTGFSGNLCQLDIDYCEPNPCQNGAQCYNRASDYFCKCPEDYEGKNCSHLKDHCRTTTCEVIDSCTVAMASNDTPEGVRYISSNVCGPHGKCKSQSGGKFTCDCNKGFTGTYCHENINDCESNPCKNGGTCIDGVNSYKCICSDGWEGAHCENNINDCSQNPCHYGGTCRDLVNDFYCDCKNGWKGKTCHSRDSQCDEATCNNGGTCYDEVDTFKCMCPGGWEGTTCNIARNSSCLPNPCHNGGTCVVNGDSFTCVCKEGWEGPICTQNTNDCSPHPCYNSGTCVDGDNWYRCECAPGFAGPDCRININECQSSPCAFGATCVDEINGYQCICPPGHSGAKCHEVSGRSCITMGRVILDGAKWDDDCNTCQCLNGRVACSKVWCGPRPCRLHKSHNECPSGQSCIPVLDDQCFVRPCTGVGECRSSSLQPVKTKCTSDSYYQDNCANITFTFNKEMMSPGLTTEHICSELRNLNILKNVSAEYSIYIACEPSLSANNEIHVAISAEDIRDDGNPVKEITDKIIDLVSKRDGNSSLIAAVAEVRVQRRPLKNRTD

Like-named read-outs stand apart in the source and are kept apart here.

Series [1] addresses Jagged1^C2-EGF3,HA (mouse) (UniProt Q9QXX0). Nature of the series: MST.
Series [2] addresses B5. Nature of the series: SPR. On the technique in general: In SPR one partner is held on a chip, and binding of the other changes the refractive index at the surface.
The series “SEC-MALS” deals with the molecule itself. Nature of the series: SEC-MALS. (In general: Size exclusion chromatography separates by hydrodynamic size, large species first.)
The target in series [3] is Notch1^EGF33-NRR, C-terminally biotinylated SPR ligand (mouse) (UniProt Q01705). Nature of the series: SPR.
In series [4] the target is B5. As to the kind of experiment: SPR. The source holds these as a separate data set.
The series “cross-linking” concerns the molecule itself. As to the kind of experiment: cross-linking.
The next series addresses T1, Notch1^EGF33-NRR. Nature of the series: SPR.
Series [5] concerns the target B4. Nature of the series: cross-linking.

A word on the Kd: it is the equilibrium constant for the complex coming apart. The molecule “Notch1^EGF33-NRR (from UniProt Q01705 1267-1717) (domain or fragment)” had a Kd in series [1] of 500 nM.
The molecule B1 came in with a dissociation constant (Kd) in series [2] of roughly 1000 nM.
One may read the stoichiometry N as the number of molecules, sites or subunits per partner or assembly. As for B2, the “stoichiometry N” value in the series “SEC-MALS” turned out to be 2.
Consider B3, for which the Kd in series [3] was 290 nM; in series [4] it was 340 nM.
Turning to B4, the binding result in the series “cross-linking” is “binds”.
As to B5, the binding result in the series with Notch1^EGF33-NRR is given as “binds”.
Regarding B6, the dissociation constant (Kd) in series [3] was determined as 290 nM; in series [4], 930 nM.
B7 registered a Kd in the series with Notch1^EGF33-NRR of 115000 nM.
As to B8, the binding result in series [5] is given as “binds”.

Source of the values: article doi:10.1101/2021.02.19.432005 (bioRxiv, 2021).
